According to publication PMC7505815, “Estrogen receptor alpha (ERα)–mediated coregulator binding and gene expression discriminates the toxic ERα agonist diethylstilbestrol (DES) from the endogenous ERα agonist 17β-estradiol (E2)” (Cell Biology and Toxicology, 2020):

Biological target: T1, Polyhistidine (His) tagged ERα ligand binding domain (amino acids 302–552) (UniProt P03372 302-552)
T1 construct: Detected on the array by a penta-His Alexa Fluor 488 antibody; Always tested with E2, DES or solvent (2% DMSO); also called ERα-LBD; source: partly purified from Escherichia coli (Qiagen)
T1 sequence (looked up): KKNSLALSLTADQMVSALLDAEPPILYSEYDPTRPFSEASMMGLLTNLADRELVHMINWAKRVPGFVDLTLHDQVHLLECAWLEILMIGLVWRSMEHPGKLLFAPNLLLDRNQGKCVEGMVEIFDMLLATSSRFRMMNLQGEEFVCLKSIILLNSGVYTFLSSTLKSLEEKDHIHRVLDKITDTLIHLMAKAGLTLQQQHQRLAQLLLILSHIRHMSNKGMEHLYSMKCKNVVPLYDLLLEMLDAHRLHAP
Assay: peptide or protein array; MARCoNI, PamChip peptide microarray: coregulator motif peptides immobilised; His-ERα-LBD 10 nM (partly purified) in solution with E2 (10^-12 to 10^-5 M), detected with penta-His Alexa Fluor 488 antibody 25 nM; 20 °C; 20 mM Tris-HCl pH 7.5, 500 mM NaCl, 0.2% BSA, 0.05% Tween 20, 2% DMSO
Settings: both partners purified

B1: TRRAP_3535_3557_C3535S/C3555S (peptide, UniProt Q9Y4A5 3535-3557, looked up)
peptide: SLTESRREERVLQLLRLLNPSLE
notes: Immobilised on the PamChip; also called TRRAP_3535_3557_C3535S/C3535S; source: bought: PamChip peptide microarray, PamGene International BV
B1: binds.
